# Results as given in patent publication US20170044545, “APTAMER FOR BONDING TO AUTOTAXIN AND INHIBITING BIOLOGICAL ACTIVITY OF AUTOTAXIN, AND USE FOR SAME” (RIBOMIC INC., published 2017).
# B1: SEQ 14 (ssRNA)
# RNA: GGGCUAAACGCUCUGAGGGAAACAGGUUUUGCUCCUCGGAGCGUGGACGCCC
# modifications: 2'-F pyrimidines, 2'-OH purines
# B2: SEQ 8 aptamer (ssRNA)
# RNA: GGGUGGCAACAGGACAUGGAACGCGCCCCAACUGCUUGAAACAGGUUUUGCUGAGCAGUGAUGUGAGAUGCGUCUUCGUAC
# modifications: 2'-F pyrimidines, 2'-OH purines
# Biological target: Autotaxin (ENPP2, NPP2) (Homo sapiens, UniProt Q13822 Q13822:36-863)
# Experiment: inhibition
row,Binder,IC50 [nM]
1,"UCUGAGGGAAACAGGUUUUGCUCCUCGGA (mixed, as 16(47) with PS at A10 and 2'-OMe C2 U3) [SEQ 16(55)]",0.4
2,"UCUGAGGGAAACAGGUUUUGCUCCUCGGA (mixed, as 16(21) with dT3) [SEQ 16(42)]",1
3,"UCUGAGGGAAACAGGUUUUGCUCCUCGGA (mixed, as 16(48) with PS at A10) [SEQ 16(49)]",1.6
4,"UCUGAGGGAAACAGGUUUUGCUCCUCGGA (mixed, as 16(21) with 5' 80 kDa PEG (GL4-800GS2)-ssH linker instead of 5' idT) [SEQ 16(45)]",13
5,"UCUGAGGGAAACAGGUUUUGCUCCUCGGA (mixed, as 16(43) with PS at A10) [SEQ 16(44)]",2.8
6,B1,26
7,"UCUGAGGGAAACAGGUUUUGCUCCUCGGA (mixed, as 16(32) with 5' 40 kDa PEG (GL2-400GS2)-ssH linker instead of 5' idT) [SEQ 16(34)]",4.2
8,"UCUGAGGGAAACAGGUUUUGCUCCUCGGA (mixed, as 16(49) with 2'-OMe C2 U3 U22 C24 U25) [SEQ 16(65)]",0.3
9,"UCUGAGGGAAACAGGUUUUGCUCCUCGGA (mixed, as 16(21) with dC23 dC24 dC26) [SEQ 16(33)]",0.6
10,"CCGCUCUGAGGGAAACAGGUUUUGCUCCUCGGAGCGG (ssRNA, 2'-F pyrimidines, 2'-OH purines) [SEQ 15]",7
11,"UCUGAGGGAAACAGGUUUUGCUCCUCGGA (mixed, as 16(21) with dC23 dC26) [SEQ 16(38)]",1.3
12,"UCUGAGGGAAACAGGUUUUGCUCCUCGGA (mixed, as 16(33) with 5' 40 kDa PEG (GL2-400GS2)-ssH linker instead of 5' idT) [SEQ 16(35)]",3
13,B2,49
14,"UCUGAGGGAAACAGGUUUUGCUCCUCGGA (mixed, as 16(32) with PS at A10) [SEQ 16(36)]",0.3
15,"UCUGAGGGAAACAGGUUUUGCUCCUCGGA (mixed, as 16(21) with dT1) [SEQ 16(40)]",0.9
16,"UCUGAGGGAAACAGGUUUUGCUCCUCGGA (mixed, as 16(47) with 5' 80 kDa PEG (GL2-800GS2)-ssH linker instead of 5' idT) [SEQ 16(48)]",7.8
17,"UCUGAGGGAAACAGGUUUUGCUCCUCGGA (mixed, as 16(21) with dC2) [SEQ 16(41)]",2.2
18,"UCUGAGGGAAACAGGUUUUGCUCCUCGGA (mixed, as 16(47) with dA10 and phosphorodithioate at A10) [SEQ 16(68)]",1.7
19,"UCUGAGGGAAACAGGUUUUGCUCCUCGGA (mixed, as 16(21) with dT1 dC23 dC26) [SEQ 16(47)]",2.4
20,"UCUGAGGGAAACAGGUUUUGCUCCUCGGA (mixed, as 16(21) with 5' 80 kDa PEG (GL2-800GS2)-ssH linker instead of 5' idT) [SEQ 16(43)]",3
21,"UGAGGGAAACAGGUUUUGCUCCUCG (ssRNA, 2'-F pyrimidines, 2'-OH purines) [SEQ 17]",37
22,"UCUGAGGGAAACAGGUUUUGCUCCUCGGA (mixed, as 16(38) with 5' 40 kDa PEG (GL2-400GS2)-ssH linker instead of 5' idT) [SEQ 16(39)]",3.8
23,"UCUGAGGGAAACAGGUUUUGCUCCUCGGA (mixed, as 16(45) with PS at A10) [SEQ 16(46)]",2
24,"UCUGAGGGAAACAGGUUUUGCUCCUCGGA (mixed, as 16(33) with PS at A10) [SEQ 16(37)]",0.25
25,"UCUGAGGGAAACAGGUUUUGCUCCUCGGA (ssRNA, 2'-F pyrimidines, 2'-OH purines) [SEQ 16]",12
